Legend:
cartilage cells = details: intra-articular administration, Nakazawa et al. 2002; cited from earlier work
[1] = test system: rat FR-β-expressing B300-19; assay: Flow cytometry reactivity of antibody with FR-β-expressing B300-19 cells; format: binding; details: 1×10^5 cells, APC-labeled anti-mouse IgM
Description: The resultant hybridomas were cloned by limiting dilution culture adjusted to 1 cell per well of a 96-well plate. The cloned cells were sorted by reactivity with FR-β-expressing cells. The isotype of the mouse monoclonal antibodies was determined using a mouse immunoglobulin isotyping ELISA kit (Pharmingen). As a result, the mouse anti-rat FR-β monoclonal antibodies obtained were IgM-type clone 4A67. The reactivity of these antibodies to the antigen was analyzed by flow cytometry.
(§1) After the end of reaction, stainability was measured using a flow cytometer. […], 3% thioglycolate was intraperitoneally administered to Lewis rats, and peritoneal macrophages were collected 4 days later. The negative control antibody or the 4A67 antibody was added to the macrophages adjusted to 1×10^5 for the same reaction as above, followed by further adding an anti-CD11b/c antibody labeled with phycoerythrin or the negative control antibody labeled with phycoerythrin for reaction. After the reaction, stainability was measured using a flow cytometer.

[2] = test system: thioglycolate-induced peritoneal macrophages; assay: Flow cytometry reactivity of antibody with peritoneal macrophages; format: binding, Lewis rats; details: Lewis rat peritoneal macrophages, co-stained anti-CD11b/c
Description: as §1

For `C[C@H]1C[C@@H]2[C@H]([C@@H](O)C[C@@]3(C)[C@H]2CC[C@]3(O)C(=O)CO)[C@@]2(C)C=CC(=O)C=C12` [Steroid, methylprednisolone], the “apoptotic death of cartilage cells” value (cartilage cells) is listed as “causes the apoptotic death of cartilage cells”.

B1: 4A67: IgM-type mouse anti-rat FR-β monoclonal antibody (antibody, V domains shown)
VH: QIQLVQSGPELKKPGETVKISCKASGYTFTNYGMNWVKQAPGKGLKWMGWINTYTGEPTYTDDFKGRFAFSLETSASTAYLQINNLKNEDMATYFCARKGAMDYWGQGTSVTVSS
VL: QIVLTQSPAIMSASPGEKVTMTCSASSSVSYMHWYQQKSGTSPKRWIYDTSKLASGVPARFSGSGSGTSYSLTISSMEAEDAATYYCQQWSSNPPTFGSGTKLEIK
For B1, the “reactivity with rat FR-β-expressing B300-19” value [1] was “reacts” and the “reactivity with thioglycolate-induced peritoneal macrophages” value [2] was “reacts”.
